According to the supplement of paper PMC12855868:

B1: library; numbered along this chain (parent)
chain: MAAAGGARLLRAASAVLGGPAGRWLHHAGSRAGSSGLLRNRGPGGSAEASRSLSVSARARSSSEDKITVHFINRDGETLTTKGKVGDSLLDVVVENNLDIDGFGACEGTLACSTCHLIFEDHIYEKLDAITDEENDMLDLAYGLTDRSRLGCQICLTKSMDNMTVRVPETVADARQSIDVGKTS

Variants of: B1
Assay: scaled log2 fold change in cell abundance, elesclomol vs control (0 = silent mean, 1 = nonsense mean) (scaled log2 ratio); higher = higher viability under elesclomol (loss of FDX1 cuproptosis function)
Conditions: glucose 10 mM
[1] = with HEK293T FDX1 KO, elesclomol 40 nM, 11 days
[2] = with ABC1 FDX1 KO, elesclomol 5 nM, 14 days
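Further: variant abundance is its share of total variant reads in each endpoint sample, from next-generation sequencing of the integrated ORF PCR-amplified out of genomic DNA.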

Variant | scaled log2 fold change [1] | scaled log2 fold change [2]
L25F | 0.845 | 
G29L | 0.376 | 
G29N | 1.01 | 
G29H | -0.53 | 
G29Q | 0.00954 | 
I178K | 1.24 | 0.421
I178G |  | -0.381
I178W | -0.636 | 0.246
I178P | 0.399 | -0.0627
I178M | 0.0752 | -0.147
I178Q | 0.28 | -0.0255
I178C | -0.695 | 0.576
I178T | -0.626 | 0.00283
I178S | 0.0683 | 0.197
I178R | -0.46 | 0.265
I178F | 0.801 | -0.214
I178N | 0.216 | 0.142
I178D | 1.21 | 0.156
I178L | -0.187 | 0.552
I178E | -0.114 | 0.2
I178Y | 0.141 | -1.49
I178H | 0.244 | -0.366
I178A | 0.476 | -0.325
I178V | 0.0591 | -0.343
D179H |  | 0.224
D179A | -0.278 | -0.393

Variant | scaled log2 fold change [1] | scaled log2 fold change [2]
D179I | 0.926 | -0.885
D179Q | -0.984 | 0.442
D179R | -0.221 | 0.498
D179P | 0.0267 | -0.26
D179E | 0.0611 | -0.000144
D179K | -0.385 | 0.53
D179S | 0.929 | 0.558
D179F | 0.995 | -0.352
D179N |  | 0.063
D179G | 0.304 | 0.226
D179V | 0.172 | -0.0481
D179C | -0.227 | 0.369
D179L | 1.12 | 0.0184
D179Y | -0.339 | 0.0967
D179T | 0.00101 | 0.106
D179M | -0.494 | 0.0418
D179W |  | 0.235
S184N | 0.0759 | 0.136
S184T | -0.512 | -0.0663
S184F | -0.432 | 0.3
S184W | 0.713 | 0.0507
S184Y | 0.879 | -0.125
S184M | 0.661 | 0.00413
S184R | -0.427 | 0.0521
S184G | -0.25 | 0.207
S184H | -0.0277 | 0.0751

Variant | scaled log2 fold change [1] | scaled log2 fold change [2]
S184P | 0.83 | 0.326
S184E | 1.03 | -0.0286
S184A | 0.908 | 0.168
S184L | 0.57 | -0.241
S184Q | -0.0365 | -0.0164
S184C |  | 0.145
S184V | 0.648 | 0.362
S184K | 0.0933 | -0.0652
S184D | 0.845 | -0.159
S184I | -0.259 | 0.126
W24D | -0.665 | 
W24S | -0.637 | 
W24Y | 0.0942 | 
G22D | 0.368 | 
G22S | 1.21 | 
H26V | 0.418 | 
H26I | 0.477 | 
A4P | -0.59 | 
P20V | 0.328 | 
P20R | 0.465 | 
S14N | 0.029 | 
R175T | 0.313 | 0.48
R175A | -0.138 | 0.455
R175G |  | 0.394
R175N | 0.495 | 0.0623
R175V | -0.0442 | 0.472

Variant | scaled log2 fold change [1] | scaled log2 fold change [2]
R175D | 1.25 | 0.148
R175Q | -0.894 | -1.39
R175F | 0.0272 | 0.208
R175P | 0.128 | -0.117
R175L |  | 0.518
R175E | 0.643 | 0.417
R175H | -0.908 | 0.468
R175Y | -0.118 | 0.225
R175C | 0.45 | -0.0756
R175M | 0.0945 | -0.223
R175S | 0.224 | 0.343
R175K | -0.161 | 0.138
R175W | -0.0023 | 0.307
R175I | 0.157 | -0.385
K182H | -0.354 | -0.181
K182I | 0.677 | 0.114
K182W | 0.909 | 0.0276
K182E | -1.19 | -0.363
K182A | -0.691 | 0.0976
K182M | -0.0296 | -0.000782
K182S | -0.584 | 0.0077
K182D |  | 0.0891
K182G |  | 0.289
K182Y | -0.398 | 0.0751
K182N | 0.75 | 0.127
K182C | -0.334 | -0.0381

Variant | scaled log2 fold change [1] | scaled log2 fold change [2]
K182F | -0.11 | 0.103
K182T | -0.0291 | 0.134
K182P |  | 0.201
K182L | 0.171 | -0.0698
K182V | 0.182 | -0.251
K182R | 0.0141 | -0.345
K182Q | -0.145 | 0.399
A15R | -0.519 | 
T183I | -0.426 | 0.0224
T183N |  | -0.0614
T183F | -0.199 | 0.0658
T183G | -1.07 | 0.353
T183C | -0.686 | 0.0469
T183E | -0.187 | -1.02
T183K | -0.436 | -0.157
T183P |  | 0.166
T183S | -0.869 | 0.172
T183H | -0.49 | -0.16
T183R | -0.367 | 0.102
T183A | -0.711 | -0.44
T183L | -0.253 | -0.0402
T183M | -0.119 | -0.197
T183Q |  | -0.0766
T183D | -0.222 | 0.0532
T183V | -0.191 | 0.00691
T183W | 0.214 | -0.19

Variant | scaled log2 fold change [1] | scaled log2 fold change [2]
T183Y | 0.0186 | -0.296
D75P | -0.0681 | 
D75G | 0.0557 | 
R51I | 0.315 | 
S62P | 0.152 | 
S62V | -0.946 | 
N40G | -0.0433 | 
N40H | -0.707 | 
N40A | 1.14 | 
S177W | 0.264 | 0.0273
S177G | 0.0748 | -0.315
S177P | -0.486 | -0.213
S177I | 0.665 | -0.08
S177H | -0.562 | 0.139
S177Q | -0.314 | 0.143
S177K | -0.228 | 0.281
S177D | -0.675 | -1.44
S177A |  | -0.0907
S177V | 0.49 | -0.287
S177N | 0.0839 | 0.00267
S177L | -0.529 | -0.34
S177E | -0.019 | -0.0815
S177Y | 0.126 | -1.05
S177M | 0.0434 | -0.566
S177C |  | -0.309
S177F | -0.0862 | -0.0241

Variant | scaled log2 fold change [1] | scaled log2 fold change [2]
S177R | -0.798 | -0.0538
S177T | -0.492 | -0.0709
S61H | 1.68 | 
S61T | 0.136 | 
S61L | 0.17 | 
S61A | 0.782 | 
G181M | 0.389 | -1.35
G181V |  | -0.396
G181C | -0.501 | -0.0449
G181W | 0.364 | 0.226
G181P | -0.548 | -0.164
G181T | -0.186 | 0.225
G181K | -0.659 | 0.227
G181F | 0.167 | 0.316
G181D | -0.438 | 0.217
G181N |  | 0.125
G181Q | -0.21 | -0.419
G181R | 0.814 | -0.0624
G181I | 0.0446 | 0.268
G181L |  | 0.185
G181S | 0.902 | 0.113
G181E | -0.4 | -0.223
G181H | 0.112 | -0.157
G181Y | -0.568 | 0.093
G181A | -0.352 | -0.623
R60D | 0.0454 | 

Variant | scaled log2 fold change [1] | scaled log2 fold change [2]
S30W | -0.103 | 
S30P | -0.513 | 
V16H | 0.416 | 
G33D | 0.213 | 
A57P | -0.118 | 
S50F | -0.396 | 
S50V | -0.0587 | 
V180M | 0.491 | 0.313
V180C | 0.216 | 0.235
V180Q | -0.00162 | 0.0492
V180H | 1.19 | -0.37
V180N | -0.0838 | 0.00503
V180P | 0.824 | -1.19
V180F | 0.0689 | 0.0635
V180S | -1.45 | -0.754
V180A | 2.72 | -0.00321
V180E | -0.141 | -0.352
V180G | -0.341 | 0.144
V180L | -0.104 | -0.0572
V180K | 0.164 | -0.341
V180D |  | 0.293
V180W | 0.322 | -0.111
V180I |  | 0.213
V180Y | 0.873 | -0.084
V180R | -0.285 | -0.02
V180T | -0.33 | 0.143

Variant | scaled log2 fold change [1] | scaled log2 fold change [2]
A21W | 0.402 | 
V55A | -0.0113 | 
R31L | -0.385 | 
R31D | 0.39 | 
L37I | 1.2 | 
L37N | -0.668 | 
L37A | 0.765 | 
L9A | 0.241 | 
Q176S | -0.0154 | -0.0172
Q176C | -0.158 | 0.128
Q176V | -0.626 | 0.192
Q176D | -0.177 | -0.118
Q176M |  | 0.291
Q176E | -0.685 | 0.157
Q176P | 0.159 | 0.375
Q176N | 1.21 | -0.0287
Q176L | -0.65 | -0.0736
Q176W | 0.328 | -0.225
Q176F | 0.182 | -0.29
Q176K | 0.463 | 0.426
Q176Y | 1.3 | 0.0438
Q176T | -0.279 | -0.0483
Q176H | 0.909 | -0.0199
Q176R | 0.492 | -0.155
Q176G | -0.11 | -0.184
Q176I | -0.471 | 0.324

Variant | scaled log2 fold change [1] | scaled log2 fold change [2]
Q176A | 0.8 | 0.239
A174S | -0.662 | -0.111
A174E | 0.0347 | -0.219
A174M | -0.275 | 0.0375
A174Q |  | -0.051
A174R | 0.908 | -0.108
A174H | -0.0112 | 0.267
A174N |  | -0.0564
A174G | 0.643 | -0.324
A174K | 0.0836 | -0.0242
A174W | -0.353 | 0.23
A174V | -0.188 | 0.037
A174F | -1.07 | -1.02
A174P | -0.277 | -0.155
A174L | 0.483 | 0.255
A174I | 0.249 | 0.163
A174T | -0.546 | 0.187
A174Y | 0.358 | 0.11
